# According to patent publication US20090291890A1 (published 2009):
# Biological target: Factor X (FX) (Homo sapiens (Human)) (UniProt P00742)
# Sequence (P00742 41-488 limits assumed): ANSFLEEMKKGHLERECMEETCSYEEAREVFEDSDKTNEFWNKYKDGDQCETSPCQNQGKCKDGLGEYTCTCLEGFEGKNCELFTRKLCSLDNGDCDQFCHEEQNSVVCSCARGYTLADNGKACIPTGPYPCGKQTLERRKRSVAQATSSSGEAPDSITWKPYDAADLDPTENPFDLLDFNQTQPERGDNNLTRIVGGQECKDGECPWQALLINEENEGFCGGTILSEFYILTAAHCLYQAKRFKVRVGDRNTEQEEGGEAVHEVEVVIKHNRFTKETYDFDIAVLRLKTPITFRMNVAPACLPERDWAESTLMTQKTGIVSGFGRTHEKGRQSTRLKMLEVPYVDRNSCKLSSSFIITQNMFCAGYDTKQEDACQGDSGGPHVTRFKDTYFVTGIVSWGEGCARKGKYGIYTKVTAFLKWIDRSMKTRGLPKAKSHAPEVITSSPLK
row,"kcat/KM, TF-Dependent Indirect Assay",Binder
1,3.32e+07 M⁻¹ s⁻¹,FVIIa variant A175S (enzyme) ANAFLEELRPGSLERECKEEQCSFEEAREIFKDAERTKLFWISYSDGDQCASSPCQNGGSCKDQLQSYICFCLPAFEGRNCETHKDDQLICVNENGGCEQYCSDHTGTKRSCRCHEGYSLLADGVSCTPTVEYPCGKIPILEKRNASKPQGRIVGGKVCPKGECPWQVLLLVNGSQLCGGTLINTIWVVSAAHCFDKIKNWRNLIAVLGEHDLSEHDGDEQSRRVAQVIIPSTYVPGTTNHDIALLRLHQPVVLTDHVVPLCLPERTFSERTLAFVRFSLVSGWGQLLDRGATALELMVLNVPRLMTQDCLQQSRKVGDSPNITEYMFCAGYSDGSKDSCKGDSGGPHATHYRGTWYLTGIVSWGQGCATVGHFGVYTRVSQYIEWLQKLMRSEPRPGVLLRAPFP
2,6.35e+07 M⁻¹ s⁻¹,FVIIa variant T130N/E132S (enzyme) ANAFLEELRPGSLERECKEEQCSFEEAREIFKDAERTKLFWISYSDGDQCASSPCQNGGSCKDQLQSYICFCLPAFEGRNCETHKDDQLICVNENGGCEQYCSDHTGTKRSCRCHEGYSLLADGVSCTPNVSYPCGKIPILEKRNASKPQGRIVGGKVCPKGECPWQVLLLVNGAQLCGGTLINTIWVVSAAHCFDKIKNWRNLIAVLGEHDLSEHDGDEQSRRVAQVIIPSTYVPGTTNHDIALLRLHQPVVLTDHVVPLCLPERTFSERTLAFVRFSLVSGWGQLLDRGATALELMVLNVPRLMTQDCLQQSRKVGDSPNITEYMFCAGYSDGSKDSCKGDSGGPHATHYRGTWYLTGIVSWGQGCATVGHFGVYTRVSQYIEWLQKLMRSEPRPGVLLRAPFP
3,4.5e+06 M⁻¹ s⁻¹,FVIIa variant V158T/L287T/M298K (enzyme) ANAFLEELRPGSLERECKEEQCSFEEAREIFKDAERTKLFWISYSDGDQCASSPCQNGGSCKDQLQSYICFCLPAFEGRNCETHKDDQLICVNENGGCEQYCSDHTGTKRSCRCHEGYSLLADGVSCTPTVEYPCGKIPILEKRNASKPQGRIVGGKTCPKGECPWQVLLLVNGAQLCGGTLINTIWVVSAAHCFDKIKNWRNLIAVLGEHDLSEHDGDEQSRRVAQVIIPSTYVPGTTNHDIALLRLHQPVVLTDHVVPLCLPERTFSERTLAFVRFSLVSGWGQTLDRGATALELKVLNVPRLMTQDCLQQSRKVGDSPNITEYMFCAGYSDGSKDSCKGDSGGPHATHYRGTWYLTGIVSWGQGCATVGHFGVYTRVSQYIEWLQKLMRSEPRPGVLLRAPFP
4,4.88e+07 M⁻¹ s⁻¹,FVIIa variant A122N/G124S/E394N/P395A/R396S (enzyme) ANAFLEELRPGSLERECKEEQCSFEEAREIFKDAERTKLFWISYSDGDQCASSPCQNGGSCKDQLQSYICFCLPAFEGRNCETHKDDQLICVNENGGCEQYCSDHTGTKRSCRCHEGYSLLNDSVSCTPTVEYPCGKIPILEKRNASKPQGRIVGGKVCPKGECPWQVLLLVNGAQLCGGTLINTIWVVSAAHCFDKIKNWRNLIAVLGEHDLSEHDGDEQSRRVAQVIIPSTYVPGTTNHDIALLRLHQPVVLTDHVVPLCLPERTFSERTLAFVRFSLVSGWGQLLDRGATALELMVLNVPRLMTQDCLQQSRKVGDSPNITEYMFCAGYSDGSKDSCKGDSGGPHATHYRGTWYLTGIVSWGQGCATVGHFGVYTRVSQYIEWLQKLMRSNASPGVLLRAPFP
5,4.48e+06 M⁻¹ s⁻¹,FVIIa variant V158D/L287T/M298K (enzyme) ANAFLEELRPGSLERECKEEQCSFEEAREIFKDAERTKLFWISYSDGDQCASSPCQNGGSCKDQLQSYICFCLPAFEGRNCETHKDDQLICVNENGGCEQYCSDHTGTKRSCRCHEGYSLLADGVSCTPTVEYPCGKIPILEKRNASKPQGRIVGGKDCPKGECPWQVLLLVNGAQLCGGTLINTIWVVSAAHCFDKIKNWRNLIAVLGEHDLSEHDGDEQSRRVAQVIIPSTYVPGTTNHDIALLRLHQPVVLTDHVVPLCLPERTFSERTLAFVRFSLVSGWGQTLDRGATALELKVLNVPRLMTQDCLQQSRKVGDSPNITEYMFCAGYSDGSKDSCKGDSGGPHATHYRGTWYLTGIVSWGQGCATVGHFGVYTRVSQYIEWLQKLMRSEPRPGVLLRAPFP
6,5.27e+07 M⁻¹ s⁻¹,FVIIa variant A122N/G124S (enzyme) ANAFLEELRPGSLERECKEEQCSFEEAREIFKDAERTKLFWISYSDGDQCASSPCQNGGSCKDQLQSYICFCLPAFEGRNCETHKDDQLICVNENGGCEQYCSDHTGTKRSCRCHEGYSLLNDSVSCTPTVEYPCGKIPILEKRNASKPQGRIVGGKVCPKGECPWQVLLLVNGAQLCGGTLINTIWVVSAAHCFDKIKNWRNLIAVLGEHDLSEHDGDEQSRRVAQVIIPSTYVPGTTNHDIALLRLHQPVVLTDHVVPLCLPERTFSERTLAFVRFSLVSGWGQLLDRGATALELMVLNVPRLMTQDCLQQSRKVGDSPNITEYMFCAGYSDGSKDSCKGDSGGPHATHYRGTWYLTGIVSWGQGCATVGHFGVYTRVSQYIEWLQKLMRSEPRPGVLLRAPFP
7,6.55e+07 M⁻¹ s⁻¹,FVIIa variant S222A/Gla Swap FIX (enzyme) YNSGKLEEFVQGNLERECMEEKCSFEEAREVFENTERTTEFWKQYSDGDQCASSPCQNGGSCKDQLQSYICFCLPAFEGRNCETHKDDQLICVNENGGCEQYCSDHTGTKRSCRCHEGYSLLADGVSCTPTVEYPCGKIPILEKRNASKPQGRIVGGKVCPKGECPWQVLLLVNGAQLCGGTLINTIWVVSAAHCFDKIKNWRNLIAVLGEHDLSEHDGDEQARRVAQVIIPSTYVPGTTNHDIALLRLHQPVVLTDHVVPLCLPERTFSERTLAFVRFSLVSGWGQLLDRGATALELMVLNVPRLMTQDCLQQSRKVGDSPNITEYMFCAGYSDGSKDSCKGDSGGPHATHYRGTWYLTGIVSWGQGCATVGHFGVYTRVSQYIEWLQKLMRSEPRPGVLLRAPFP
8,4.83e+07 M⁻¹ s⁻¹,FVIIa variant S103S111delins… (enzyme) ANAFLEELRPGSLERECKEEQCSFEEAREIFKDAERTKLFWISYSDGDQCASSPCQNGGSCKDQLQSYICFCLPAFEGRNCETHKDDQLICVNENGGCEQYCSFGRGDIRNVCRCHEGYSLLADGVSCTPTVEYPCGKIPILEKRNASKPQGRIVGGKVCPKGECPWQVLLLVNGAQLCGGTLINTIWVVSAAHCFDKIKNWRNLIAVLGEHDLSEHDGDEQSRRVAQVIIPSTYVPGTTNHDIALLRLHQPVVLTDHVVPLCLPERTFSERTLAFVRFSLVSGWGQLLDRGATALELMVLNVPRLMTQDCLQQSRKVGDSPNITEYMFCAGYSDGSKDSCKGDSGGPHATHYRGTWYLTGIVSWGQGCATVGHFGVYTRVSQYIEWLQKLMRSEPRPGVLLRAPFP
9,7.47e+07 M⁻¹ s⁻¹,FVIIa variant P406ins… (enzyme) ANAFLEELRPGSLERECKEEQCSFEEAREIFKDAERTKLFWISYSDGDQCASSPCQNGGSCKDQLQSYICFCLPAFEGRNCETHKDDQLICVNENGGCEQYCSDHTGTKRSCRCHEGYSLLADGVSCTPTVEYPCGKIPILEKRNASKPQGRIVGGKVCPKGECPWQVLLLVNGAQLCGGTLINTIWVVSAAHCFDKIKNWRNLIAVLGEHDLSEHDGDEQSRRVAQVIIPSTYVPGTTNHDIALLRLHQPVVLTDHVVPLCLPERTFSERTLAFVRFSLVSGWGQLLDRGATALELMVLNVPRLMTQDCLQQSRKVGDSPNITEYMFCAGYSDGSKDSCKGDSGGPHATHYRGTWYLTGIVSWGQGCATVGHFGVYTRVSQYIEWLQKLMRSEPRPGVLLRAPFPGGGSCSFGRGDIRNVC
10,6.16e+07 M⁻¹ s⁻¹,FVIIa variant P406ins… (enzyme) ANAFLEELRPGSLERECKEEQCSFEEAREIFKDAERTKLFWISYSDGDQCASSPCQNGGSCKDQLQSYICFCLPAFEGRNCETHKDDQLICVNENGGCEQYCSDHTGTKRSCRCHEGYSLLADGVSCTPTVEYPCGKIPILEKRNASKPQGRIVGGKVCPKGECPWQVLLLVNGAQLCGGTLINTIWVVSAAHCFDKIKNWRNLIAVLGEHDLSEHDGDEQSRRVAQVIIPSTYVPGTTNHDIALLRLHQPVVLTDHVVPLCLPERTFSERTLAFVRFSLVSGWGQLLDRGATALELMVLNVPRLMTQDCLQQSRKVGDSPNITEYMFCAGYSDGSKDSCKGDSGGPHATHYRGTWYLTGIVSWGQGCATVGHFGVYTRVSQYIEWLQKLMRSEPRPGVLLRAPFPCSFGRGDIRNVC
